Here are results for 4 molecules from patent US20260070974A1 (NONA BIOSCIENCES SUZHOU, published 2026).

Values joined by “and” are separate entries in the source; they are usually repeats but may differ in a detail not shown here. Identical values can stand only once.

First the molecules themselves.
T1: cynomolgus monkey Siglec-15-his protein (Acrobiosystems, Cat #: SG5-C52H6) (cynomolgus monkey, UniProt Q6ZMC9 20-263 (human entry))
T1 construct: Bought protein; also called cynomolgus monkey Siglec-15 protein; not shown: his tag
T1 chain: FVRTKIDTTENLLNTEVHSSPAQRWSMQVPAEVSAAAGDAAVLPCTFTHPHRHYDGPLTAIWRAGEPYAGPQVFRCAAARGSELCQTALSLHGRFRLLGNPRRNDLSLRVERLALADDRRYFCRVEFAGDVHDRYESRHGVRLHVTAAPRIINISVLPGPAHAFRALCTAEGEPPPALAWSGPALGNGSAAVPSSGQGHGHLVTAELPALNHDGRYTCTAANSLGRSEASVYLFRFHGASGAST

T2: human Siglec-15 on CHO-K1/human Siglec-15 cells (KYinno, Beijing) (human, UniProt Q6ZMC9 20-328)
T2 sequence: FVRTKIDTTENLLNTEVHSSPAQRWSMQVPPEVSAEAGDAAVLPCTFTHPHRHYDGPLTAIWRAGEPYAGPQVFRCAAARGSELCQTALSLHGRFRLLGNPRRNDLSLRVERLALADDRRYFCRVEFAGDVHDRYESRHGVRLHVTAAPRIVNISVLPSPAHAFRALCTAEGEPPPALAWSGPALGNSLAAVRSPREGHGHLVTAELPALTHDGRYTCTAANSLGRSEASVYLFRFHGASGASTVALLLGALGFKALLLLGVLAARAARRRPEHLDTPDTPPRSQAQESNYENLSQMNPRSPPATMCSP

B1: PR301289 (antibody, human IgG1, kappa, V domains shown)
VH: QVQLVQSGAEVKKPGASVKVSCRASGYTFTSYDINWVRQATGQGLEWMGWMNPHSGDTGYAQNFQGRVTMTWNTSISTAYMELSSLRSEDTAVYYCARRRVGVYYYGMDVWGQGTTVTVSS
VL: ENVLTQSPGTLSLSPGERATLSCRASQSVSSSYFGWYQQKPGQAPRLLIYGASSRATGIPDRFSGSGSGTDFTLTISRLEPEDFAVYYCQQYGSSPITFGQGTRLEIKR
notes: Parent of the PTM variants PR301289-1 and -2
B2: PR300066 (Tab) (antibody, human IgG1, kappa, V domains shown)
VH: QVQLQQPGAELVKPGASVKMSCKASGYTFTSYWITWVIQRPGQGLEWIGDIYCGSDTMHYNEKFKNKATLTVDTSSSTAYMQLSSLTSEDSAVYYCARWWDYGSSYDYFDYWGQGTTLTVSS
VL: DIKMTQSPSSMYASLGERVTITCKASQDINSYLSWFQQKPGKSPKTLIYRANRLVDGVPSRFSGSGSGQDYSLTISSLEYEDMGIYYCLQYDEFPYTFGGGTKLEIKR
notes: variable region from clone 5G12 of WO 2018/057735A1, on human IgG1/kappa constant regions; also called 5G12
B3: PR301286 (antibody, human IgG1, kappa, V domains shown)
VH: QVQLVESGGGVVQPGKSLRLSCAASGFTFSSYGMHWVRQAPGKGLEWVAVIWIDGSNRYYAASVKGRFTISRDNSKNTLYLQMNSLRAEDTAVYYCTRGYGDYAYVMDVWGQGASVTVSS
VL: DIVMTQSPLSLPVTPGEPASISCRSSQSLLPGNGYNYLDWYLQKPGQSPQLLIYLGSNRASGVPDRFSGSGSGTDFTLKISRVEAEDVGIYYCMQALQSPLTFGGGTKVEIKR
notes: Parent of the PTM variants PR301286-1, -3, -5, -6, -7
B4: PR301285 (antibody, human IgG1, kappa, V domains shown)
VH: QVQLQESGPGLVKPSETLSLTCTVSGGSMISYYWSWLRQPPGKGLEWIGYIYYSGNTNYNPSLKSRITIAVDTSKNQFSLKLNSVTAADTAVYYCARERELHPYYFDYWGQGTLVTVSS
VL: DIQLTQSPSFLSASVGDRVTITCRASQGIDNYLAWYQQKPGKAPKVLIYAASTLQSGVPSRFSGSGSGTEFTLTISSLQPEDFATYYCQQLNSYPLTFGGGTKVEIKR

By EC50 is commonly meant the concentration giving half of the maximal effect.

One assay deals with T1, cynomolgus monkey Siglec-15-his protein …. The assay can be described thus: ELISA, coated cynomolgus monkey Siglec-15-his. Here is the method:
[…] cynomolgus monkey Siglec-15-his protein (Acrobiosystems, Cat #: SG5-C52H6) dissolved in PBS was added to an ELISA plate at 100 μL/well for coating and the plate was incubated overnight at 4° C. The ELISA plate was then blocked with PBST (PBS+0.05% Tween 20) containing 2% BSA at 200 μL/well and incubated at 37° C. for 1 h. The ELISA plate was washed 4 times with PBST. The anti-Siglec-15 antibody diluted in a gradient (5-fold dilution, starting concentration: 6.67 nM) was added to the ELISA plate at 100 µL/well and the plate was incubated at 37° C. for 1 h. The ELISA plate was washed 4 times with PBST. The goat anti-human IgG (H+L)-HRP (1:5000, Jackson, Cat #: 109-035-088) was added at 100 μL/well and the plate was incubated at 37° C. for 1 h. The ELISA plate was washed 4 times with PBST. The TMB substrate (Biopanda, Cat #: TMB-S-003) was added at 100 μL/well, and the plate was incubated at room temperature for 5 min, and then the stop buffer (Solarbio, Cat #: C1058) was added at 100 μL/well to stop the reaction.
Consider B1, for which the concentration giving a half-maximal response (EC50) worked out at 0.104 nM.

On to B2, for which the EC50 is 0.025 nM and 0.012 nM.

Turning to B3, the EC50 was determined as 0.09 nM.

On to B4, for which the EC50 was 0.038 nM.

The target in another assay is T2, human Siglec-15 on CHO-K1/human …. The assay can be described thus: flow cytometry on CHO-K1/human Siglec-15 cells. Here is the method: CHO-K1/human Siglec-15 cells (KYinno, Beijing) were adjusted to a density of 1×10⁶/mL with PBS, and the cell suspension was added to a 96-well V-bottom plate at 100 μL/well. The 96-well V-bottom plate was centrifuged at 1000 rpm for 5 min and washed once with PBS+2% FBS. The cells were resuspended in […] of antibody diluted in a gradient (5-fold dilution, starting concentration: 500 nM) and incubated at 4° C. for 1 h, and PR300066 and hIgG1 were used as positive control and negative control, respectively. After 1 h, the cells were washed twice with PBS+2% FBS. The cells were incubated with 100 μL of Alexa Fluor 488 goat anti-human IgG (Jackson, Cat #: 109-545-098) at 4° C. for 1 h in the dark and then washed twice with PBS+2% FBS. The cells were then resuspended in 200 μL of PBS+2% FBS. The fluorescence intensity of the cells was analyzed using a BD FACSCanto™ II flow cytometer.
On the technique in general: A flow cytometer gives signals particle by particle.
Regarding B1, the response was half-maximal at 1.04 nM (EC50) and the “Maximum (MFI)” value is 29200 MFI.

B2: the EC50 was 3.66 nM and 2.2 nM and 1.64 nM.

Take B3: the concentration for a half-maximal effect (EC50) was found to be 1.98 nM and the “Maximum (MFI)” value is 24200 MFI.

For B4, the response was half-maximal at 0.553 nM (EC50) and the “Maximum (MFI)” value was determined as 20300 MFI.

In another assay the target is T3, human PD-L1/B7-H1-his protein (Acrobiosystems, Cat PD1-H5229) (human, UniProt Q9NZQ7 19-238).
T3 construct: Bought protein; not shown: his tag
T3 sequence (Q9NZQ7 19-238 limits assumed): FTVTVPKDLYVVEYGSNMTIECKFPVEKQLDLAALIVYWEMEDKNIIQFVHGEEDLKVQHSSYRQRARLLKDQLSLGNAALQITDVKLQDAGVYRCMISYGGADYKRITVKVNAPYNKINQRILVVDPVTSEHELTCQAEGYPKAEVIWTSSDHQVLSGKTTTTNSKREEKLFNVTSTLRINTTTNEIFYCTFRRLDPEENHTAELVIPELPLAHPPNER
The assay can be described thus: ELISA on coated human PD-L1/B7-H1-his, antibody at 100 nM and 10 nM, goat anti-human IgG-HRP, OD450. The protocol:
Human Siglec-15 ECD-his protein (Acrobiosystems, Cat SG5-H52H3), human Siglec-2-his protein (Acrobiosystems, Cat CD2-H52H8), human Siglec-4a-his protein (Acrobiosystems, Cat MAG-H52H8), human Siglec-3-his protein (Acrobiosystems, Cat CD3-H5226), human Siglec-10-his protein (Acrobiosystems, Cat SIO-H52H9), and human PD-L1/B7-H1-his protein (Acrobiosystems, Cat PD1-H5229), each at 1 μg/mL and dissolved in PBS, were each added to an ELISA plate at 100 μL/well for coating and the plate was incubated overnight at 4° C. The ELISA plate was then blocked with PBST (PBS+0.05% Tween 20) containing 2% BSA at 200 μL/well and incubated at 37° C. for 1 h. The ELISA plate was washed 4 times with PBST. The anti-Siglec-15 antibody diluted in a gradient (concentrations: 100 nM and 10 nM) was added to the ELISA plate at 100 μL/well and the plate was incubated at 37° C. for 1 h. The ELISA plate was washed 4 times with PBST. The goat anti-human IgG (H+L)-HRP (1:5000, Jackson, Cat 109-035-088) was added at 100 μL/well and the plate was incubated at 37° C. for 1 h. The ELISA plate was washed 4 times with PBST. The TMB substrate (Biopanda, Cat TMB-S-003) was added at 100 μL/well, and the plate was incubated at room temperature for 5 min, and then the stop buffer (Solarbio, Cat #: C1058) was added at 100 μL/well to stop the reaction.
A general note: In an ELISA, binding on a coated surface is turned into a signal by an enzyme label.
In the case of B1, the binding result was “no binding (tested: 100 nM)”.

Take B2: the binding result is on record as “no binding (tested: 100 nM)”.

On to B3, for which the binding result was “no binding (tested: 100 nM)”.

Turning to B4, the binding result is listed as “no binding (tested: 100 nM)”.
